# Experimental data published in the supplement of paper PMC11865577.
# Key:
# Assay in all cases: pull-down binding Z-score (relative to library population); higher = stronger binding
# [1] = system: G-clamp-N3 (biotin conjugate); conditions: RNA library: Library-1 (pre-miRNA loops + repeats)
# In short: (§1)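 The RNA library, end-labelled with Cy5 or Cy3, was heat-folded in phosphate/NaCl/KCl buffer, and 1 μg was incubated at 25 °C for 60 min with streptavidin beads carrying 100 pmol of biotin-conjugated small molecule. Hot SDS released the bound RNA, which was then hybridised to a DNA barcode microarray for 20 h at 55.5 °C. For scoring binding, signal from beads alone was subtracted, replicate barcoded probes were averaged after discarding the highest and lowest, and each value was turned into a Z-score from the library mean and standard deviation.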
# [2] = system: TO-3-N3 (biotin conjugate); conditions: RNA library: Library-2
# In short: as §1
# [3] = system: TO-3-N3-2 (biotin conjugate); conditions: RNA library: Library-2
# In short: as §1
# TO-N3 (biotin conjugate) = conditions: RNA library: Library-2
# In short: as §1
# [4] = system: TO-N3-2 (biotin conjugate); conditions: RNA library: Library-2
# In short: as §1
Sequence,pull-down binding Z-score [1],pull-down binding Z-score [2],pull-down binding Z-score [3],pull-down binding Z-score (TO-N3 (biotin conjugate)),pull-down binding Z-score [4]
UUGUGAAACACAGGUGUUUUUUAACCUCAC [hsa-mir-6841],-0.237,0.199,0.0964,0.172,0.257
UUGUGAUGUUUACCGUUUAAAUCCACGG [hsa-mir-125b-1],-0.878,0.0416,-0.313,0.107,0.078
UUGUGGCAAUACAG [hsa-mir-8068],0.635,-0.437,-0.166,-0.425,-0.0186
UUGUGGCUUUGGGUGGAUAUUAAUCAGCCACAG [hsa-mir-383],0.747,0.257,0.274,0.0969,0.0594
UUGUGUAUGUACUUAGCUGUACUAUA [hsa-mir-1244-1_1244-4_1244-2_1244-3],0.509,-0.689,-0.417,-0.627,-0.486
UUGUGUCCAUCAUGCAACAA [hsa-mir-802],-1.17,-0.49,-0.248,-0.144,0.396
UUGUGUGGUAUCCGUAUAGUCACAG [hsa-mir-10b],-0.0547,-0.416,-0.634,-0.277,-0.0857
UUGUUACAUUUUAGGAUUGCUUGCCCCUUGCUCCAAUGGUGCAGGCAGAAGAAAUGCAAACAA [hsa-mir-3973],-0.551,-0.0993,-0.0806,0.135,1.25
UUGUUCGUUGCAUUUUUAGGAACAA [hsa-mir-3613],1.4,-1.11,-0.623,-1.52,-1.23
UUGUUCUGAUGUACUACGACAA [hsa-mir-7-3],-1.28,-0.716,-0.294,-0.672,-0.186
UUGUUGUUAUUACU [hsa-mir-378d-1],-0.945,-0.148,-0.259,-0.378,-0.877
UUUAAGACACCCUGUACCUUAAA [hsa-mir-3121],-1.57,-0.44,-0.305,-0.415,-0.346
UUUACAUAUAAAUUUCUAUUUGU [hsa-mir-4503],-1.51,0.81,0.317,0.596,-0.557
UUUACAUGCUACAGUCAAGAUGCGAA [hsa-mir-15b],-0.982,0.288,0.0265,0.275,-0.147
UUUACCAUUACUUUCAAUGGCAAA [hsa-mir-548a-3],-0.644,-1.16,-0.786,-1.76,-1.82
UUUACUUUUGGCCUCAAGUCAUUGCAGUAAA [hsa-mir-4796],-0.453,-0.696,-0.635,-0.832,-1.18
UUUAGAAAAGAGAAUUCCAAA [hsa-mir-1252],-1.48,-0.294,-0.206,-0.315,-0.676
UUUAGAUUUAAAUAGUGAUUGUCUAG [hsa-mir-29b-1],0.526,0.267,-0.0424,0.194,-0.27
UUUAGUAUGCCACAUUUCUAAA [hsa-mir-4282],-1.54,-0.601,-0.374,-0.757,-0.699
UUUAUGCCUGUUAGCAUGAAAAAAGAGGCUGAGAA [hsa-mir-7515],-0.395,-0.5,0.165,-0.368,0.0418
UUUCAGAUAACUCGGGA [hsa-mir-4320],-0.732,0.173,-0.229,0.116,0.00433
UUUCCCAUUAUUUUAAUUGCGAA [hsa-mir-570],-0.975,-0.699,-0.363,-0.927,-1.16
UUUCUAUAACUGGAUGAAA [hsa-mir-498],-0.372,-0.457,-0.431,-0.488,-0.778
UUUCUCUUAUGUGAAAAAAAAGAAG [hsa-mir-525],-1.41,-0.283,-0.174,-0.463,-0.745
UUUCUCUUGUCCAAAGGAAAAGAAG [hsa-mir-524],-0.493,-0.644,-0.376,-0.636,-0.747

Sequence,pull-down binding Z-score [1],pull-down binding Z-score [2],pull-down binding Z-score [3],pull-down binding Z-score (TO-N3 (biotin conjugate)),pull-down binding Z-score [4]
UUUCUCUUGUCUAAAAGAAAAGAAA [hsa-mir-518f],-0.201,-0.761,-0.281,-0.8,-0.969
UUUCUGAAUUUGUGAGA [hsa-mir-4463],-0.0109,-0.00836,-0.191,-0.277,-0.751
UUUCUGUUGUCUAAAAGAAAAGAAA [hsa-mir-527],0.0533,-0.325,-0.186,-0.383,-0.575
UUUCUGUUGUCUAAAAGAAGAGAAA [hsa-mir-518a-2],0.832,0.159,-0.0883,0.171,-0.273
UUUCUGUUGUCUGAAAGAAAAGAAC [hsa-mir-523],-0.976,-0.301,0.0657,-0.0983,0.513
UUUCUGUUGUCUGAAAGAAGAGAAA [hsa-mir-526b_518a-1],0.288,-0.47,-0.214,-0.697,-0.584
UUUCUGUUGUCUGAAAGCAGA [hsa-mir-515-1_515-2],-0.445,0.216,0.223,0.262,-0.0707
UUUCUUAAAUUUUAUAUAUUGGAA [hsa-mir-1284],-0.71,0.193,-0.0723,-0.124,-1.11
UUUGCAUCUGGACGACGAAU [hsa-mir-409],-0.465,-0.355,-0.0371,-0.021,0.523
UUUGCCAAUAAAAGUAAUGACAAA [hsa-mir-548ah],-1.16,0.507,0.181,0.226,-0.39
UUUGCCAGAGCUACAAAGGCAAA [hsa-mir-561],0.627,-0.527,-0.521,-0.845,-0.512
UUUGCCAUUAAAAGUAACGACAAA [hsa-mir-548a-1],-0.965,-0.873,-0.389,-1.11,-0.81
UUUGCCAUUAAAAGUAAUGCGGCCAA [hsa-mir-548o-2],-1.43,-0.219,0.0369,-0.0582,-0.13
UUUGCCAUUAAAAGUAAUGGUAAA [hsa-mir-548x-2],-0.261,-0.753,-0.616,-1.29,-1.58
UUUGCCAUUACUUUCAGUAGCAAA [hsa-mir-548c],-0.417,-0.131,-0.441,-0.379,-0.814
UUUGCCAUUACUUUCAGUGGCAAA [hsa-mir-548aq],0.135,-0.975,-0.894,-1.48,-1.11
UUUGCCAUUAUAAUGGCAAA [hsa-mir-548ae-1],-0.11,-0.806,-0.855,-1.37,-1.71
UUUGCCAUUGAAAGUAAUGGCAAA [hsa-mir-548d-2],0.739,-0.691,-0.422,-1.12,-1.04
UUUGCCGUCGAAAAUAAUGGCAAA [hsa-mir-548am],-0.204,-0.422,-0.146,-0.71,-0.502
UUUGCCGUUAAAAGUAAUGGCA [hsa-mir-548a-2],-1.31,-0.228,-0.17,-0.368,-0.106
UUUGCCGUUGCUUUUAAUGGUAAA [hsa-mir-548as],-0.134,-0.291,-0.381,-0.571,-1.31
UUUGCCUAUAAAAGUAAUGGCAAA [hsa-mir-548an],0.207,-0.247,-0.19,-0.512,-0.888
UUUGCCUCUCUCAGAAAAUAGAGUCAAA [hsa-mir-4694],0.239,0.229,-0.0805,0.157,-0.759
UUUGCCUGUAAAAGUAAUGGCAAA [hsa-mir-548d-1],-0.646,-0.488,-0.105,-0.702,-0.552
UUUGCGUUACUUUCAAUCGUAAA [hsa-mir-548x],-0.79,-1.01,-0.253,-1.13,-1.46

Sequence,pull-down binding Z-score [1],pull-down binding Z-score [2],pull-down binding Z-score [3],pull-down binding Z-score (TO-N3 (biotin conjugate)),pull-down binding Z-score [4]
UUUGCUACUGAAAGUAAUGGCAAA [hsa-mir-548z],0.365,-0.614,-0.468,-0.792,-0.632
UUUGCUAUUACUUUUAAUGGUAAA [hsa-mir-548aj-2],1.61,-0.666,-0.502,-0.932,-1.19
UUUGCUAUUUUUUUUUAAUGGCAAA [hsa-mir-548ac],0.725,-0.607,-0.0611,-1.01,-1.46
UUUGCUGUUGAACGUAGUGGUAA [hsa-mir-548ar],-0.679,0.181,0.0962,0.407,0.387
UUUGGCUGCCAAAAGAAAUGGCCAAA [hsa-mir-548at],-0.71,-0.656,-0.331,-0.547,-0.668
UUUGGUAUUACUUUCAGUGGCAAA [hsa-mir-548j],0.937,-0.416,0.0283,-0.448,-0.485
UUUGUACGGCACUGUGGCCACGUCCAAA [hsa-mir-497],-0.884,-0.121,-0.306,-0.0106,0.0542
UUUGUAUUGUGGUUCAGUACCAUGCAAA [hsa-mir-6507],-0.552,-0.367,-0.36,-0.633,-0.933
UUUGUCAUUAAAGUAAUGCAAA [hsa-mir-548m],-0.115,0.175,-0.211,0.0311,-0.856
UUUGUCAUUACUUUAAUUACUUUACGUUUCAUUAAUGACAAA [hsa-mir-548h-4],-0.754,-1.23,-0.563,-1.43,-1.46
UUUGUCAUUUAAAAGUAAUGGCAAA [hsa-mir-548ae-2],0.815,0.207,0.00258,-0.203,-0.902
UUUGUGGAUUUUGAAAAGGUGCAGG [hsa-mir-15a],1.81,-0.119,0.66,0.277,0.28
UUUGUGGGGCGAGGAGGGACCUGUACUAGCCAUGGUUCUGAUCACAUAUG [hsa-mir-6834],0.432,3.06,2.72,3.83,2.89
UUUGUGUAAGGAAUUUUGUGGUCACAAA [hsa-mir-10a],1.29,-1.06,-0.175,-1.25,-0.825
UUUGUUGAAAGAAUAAAUAAACCAACAAG [hsa-mir-1264],-0.724,-0.424,0.0773,-0.367,-0.365
UUUUAAUUUUUUUAAAA [hsa-mir-3606],-1.03,0.211,-0.175,-0.183,-1.39
UUUUAGAA [hsa-mir-4443],-1.3,-0.568,-0.535,-0.913,-1.35
UUUUAUCAUUACUUUUAAUGGCAAAA [hsa-mir-548f-2],0.854,1.12,0.834,0.761,-0.404
UUUUCAGUUCCUGAGAUC [hsa-mir-4287],-1.15,-0.0736,-0.202,-0.128,-0.441
UUUUCAUGACAACCCUAUAUGGGAAAAUGUUGUGAAAA [hsa-mir-3646],-0.346,-0.839,-0.448,-1.1,-1.78
UUUUCCCUUUCUCUUGCCCUGAAA [hsa-mir-4509-1_4509-3_4509-2],-1,-0.261,-0.096,-0.332,-0.219
UUUUCCUGAGAAUAAGAGAAGGAAGG [hsa-mir-4455],-0.563,-0.477,-0.0611,0.0683,0.75
UUUUCGCUUUAUAUGUGACGAAAC [hsa-mir-495],0.0902,-0.605,0.125,-0.787,-0.531
UUUUCUGGGA [hsa-mir-4456],-0.606,-0.426,-0.103,-0.484,-0.251
UUUUCUGUCCUGUCCACACAGAAAA [hsa-mir-1537],-1,-0.957,-0.517,-1.27,-0.902
